Experimental data published in patent US20060193821.

How the values were obtained:
Test in all cases: filter
[1] = target: IL-23 (human, p19/p40 heterodimer) (Homo sapiens) (UniProt Q9NPF7+P29460)
[2] = target: T1, IL-12 (mouse, p35/p40 heterodimer) (Mus musculus) (UniProt P43431+P43432); conditions: 2'-F all C and U (rRfY); 1X PBS, 0.1 mg/mL BSA, 30 min RT
T1 sequence 1: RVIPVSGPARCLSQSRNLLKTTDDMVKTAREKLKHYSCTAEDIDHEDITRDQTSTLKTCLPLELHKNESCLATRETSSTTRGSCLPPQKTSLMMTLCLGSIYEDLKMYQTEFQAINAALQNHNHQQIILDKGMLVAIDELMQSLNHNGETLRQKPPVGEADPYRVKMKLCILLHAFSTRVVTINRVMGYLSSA
T1 sequence 2: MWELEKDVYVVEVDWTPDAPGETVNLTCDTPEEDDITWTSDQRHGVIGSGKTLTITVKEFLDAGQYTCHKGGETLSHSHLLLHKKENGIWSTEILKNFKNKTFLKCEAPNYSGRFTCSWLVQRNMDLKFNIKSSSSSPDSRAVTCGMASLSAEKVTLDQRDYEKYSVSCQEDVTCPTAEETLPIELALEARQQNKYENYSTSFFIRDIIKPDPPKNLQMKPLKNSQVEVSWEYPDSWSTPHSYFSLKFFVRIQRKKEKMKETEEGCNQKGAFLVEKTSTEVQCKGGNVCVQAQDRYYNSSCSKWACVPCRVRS

[3] = target: T2, IL-23 (mouse, p19/p40 heterodimer) (Mus musculus) (UniProt Q9EQ14+P43432); conditions: 2'-F all C and U (rRfY); 1X PBS, 0.1 mg/mL BSA, 30 min RT
T2 sequence 1: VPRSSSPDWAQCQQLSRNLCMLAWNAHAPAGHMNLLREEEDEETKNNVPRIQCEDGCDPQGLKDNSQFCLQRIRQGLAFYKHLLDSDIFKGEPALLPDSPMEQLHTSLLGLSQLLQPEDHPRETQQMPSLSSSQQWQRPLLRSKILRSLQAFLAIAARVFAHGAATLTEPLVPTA
T2 sequence 2: T1 sequence 2

[4] = target: IL-12 (human, p35/p40 heterodimer) (Homo sapiens) (UniProt P29459+P29460)
Sequence of IL-12 (human, p35/p40 heterodimer) (Homo sapiens) (P29459 23-219, chain 1 of 2): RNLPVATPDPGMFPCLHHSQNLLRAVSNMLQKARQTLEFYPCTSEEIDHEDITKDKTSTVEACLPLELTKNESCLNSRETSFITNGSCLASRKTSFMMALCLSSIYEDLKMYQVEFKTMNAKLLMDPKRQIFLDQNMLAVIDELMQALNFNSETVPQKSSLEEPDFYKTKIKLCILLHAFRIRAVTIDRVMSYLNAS
Sequence of IL-12 (human, p35/p40 heterodimer) (Homo sapiens) (P29460 23-328, chain 2 of 2): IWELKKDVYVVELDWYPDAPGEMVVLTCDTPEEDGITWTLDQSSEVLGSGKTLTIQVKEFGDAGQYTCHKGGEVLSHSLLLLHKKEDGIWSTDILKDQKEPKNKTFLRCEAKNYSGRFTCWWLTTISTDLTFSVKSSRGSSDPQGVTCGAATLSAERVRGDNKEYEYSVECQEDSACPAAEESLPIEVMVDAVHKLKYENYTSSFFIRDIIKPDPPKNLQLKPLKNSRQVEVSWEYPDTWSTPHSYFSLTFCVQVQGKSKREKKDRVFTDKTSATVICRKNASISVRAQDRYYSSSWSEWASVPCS

Sequence of IL-23 (human, p19/p40 heterodimer) (Homo sapiens) (Q9NPF7 20-189, chain 1 of 2): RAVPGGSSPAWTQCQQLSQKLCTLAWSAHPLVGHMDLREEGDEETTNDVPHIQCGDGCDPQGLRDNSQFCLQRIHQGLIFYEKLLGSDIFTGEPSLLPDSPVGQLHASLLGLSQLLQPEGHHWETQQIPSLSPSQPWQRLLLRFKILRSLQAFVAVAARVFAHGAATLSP
Sequence of IL-23 (human, p19/p40 heterodimer) (Homo sapiens) (P29460 23-328, chain 2 of 2): as the sequence (P29460 23-328, chain 2 of 2) above

ACAGGCAAGUAAUUGGGGAGUGCGGGCGGGGUGU [ARC1610]
Kd ([1]; deoxy A,G, 2'-OMe C,U, dI at G24-G26, 3'-idT [dI at 24,25,26 (G parent), 2'-OMe C/U at 2,6,10,13,14,21,23,27,32,34, other A,G deoxy, 3'-inverted dT at 35], DPBS Ca Mg): 5.2 nM

ACAGGCAAGUAAUUGGGGAGUGCGGGCGGGGUGU [ARC1608]
Kd ([1]; deoxy A,G, 2'-OMe C,U, dI at G24,G25, 3'-idT [24,25], DPBS Ca Mg): 9.7 nM

GGAGCGCACUCAGCCACGGUUUACUUCCGUGGCAAUAUUGACCUCNCUCUAGACAGGUUUCGACCUCUCUGCUAGC [AMX369.F1]
Kd [2]: 165 nM
Kd [3]: 63 nM

GGAGCGCACUCNGCCACUUCGGAAUAUCGUUGUCUUCUGGGUGAGCAUGCGUUGAGGUUUCNACCUCUCUGCUAGC [AMX369.B2]
Kd [2]: 252 nM
Kd [3]: 49 nM

ACAGGCAAGUAAUUGGGGAGUGCGGGCGGGGUGU [ARC1604]
Kd ([1]; deoxy A,G, 2'-OMe C,U, dI at G22, 3'-idT [22], DPBS Ca Mg): 2.1 nM

ACAGGCAAGUAAUUGGGGAGUGCGGGCGGGGUGU [ARC1594]
Kd ([1]; deoxy A,G, 2'-OMe C,U, dI at G9, 3'-idT [dI at 9 (parent G), 2'-OMe C,U at 2,6,10,13,14,21,23,27,32,34, deoxy A,G elsewhere, 3'-inverted dT at 35], DPBS Ca Mg): 4.2 nM

ACAGGCAAGUAAUUGGGGAGUGCGGGCGGGGUGU [ARC1606]
Kd ([1]; deoxy A,G, 2'-OMe C,U, dI at G25, 3'-idT [25], DPBS Ca Mg): 5 nM

GGAGCGCACUCAGCCACUGGGGAACAUCUCAUGUCUCUGACCGCUCUUGCAGUAGAAUUUNGACCUCUCUGCUAGC [AMX369.G3]
Kd [2]: 261 nM
Kd [3]: 106 nM

ACAGGCAAGUAAUUGGGGAGUGCGGGCGGGGUGU [ARC1613]
Kd ([1]; deoxy A,G, 2'-OMe C,U, dI at G30, 3'-idT [dI at 30 (G parent), 2'-OMe C/U at 2,6,10,13,14,21,23,27,32,34, other A,G deoxy, 3'-inverted dT at 35], DPBS Ca Mg): 2.3 nM

ACAGGCAAGUAAUUGGGGAGUGCGGGCGGGGUGU [ARC1595]
Kd ([1]; deoxy A,G, 2'-OMe C,U, dI at G15, 3'-idT [dI at 15 (parent G), 2'-OMe C,U at 2,6,10,13,14,21,23,27,32,34, deoxy A,G elsewhere, 3'-inverted dT at 35], DPBS Ca …): 5.4 nM

ACAGGCAAGUAAUUGGGGAGUGCGGGCGGGGUGU [ARC1592]
Kd ([1]; deoxy A,G, 2'-OMe C,U, dI at G5, 3'-idT [dI at 5 (parent G), 2'-OMe C,U at 2,6,10,13,14,21,23,27,32,34, deoxy A,G elsewhere, 3'-inverted dT at 35], DPBS Ca Mg): 8.1 nM

GGGAAAAGCGAAUCAUACACAAGAGCGCUUUAGCGGGUAUAGCACUUUUCAUCUAAUGAANCCGUAGCUCCGCCAGAGACCAACCGAGAA [AMX86-H11]
Kd ([1]; 2'-F C,U, SHMCK, tRNA): 367 nM
Kd ([4]; 2'-F C,U, tRNA): 215 nM

GGGAAAAGCGAAUCAUACACAAGAUGUUGAACCUCUUGUGCGUCCCGAUGUUUNGCAAUGUGGAGCUCCGCCAGAGACCAACCGAGAA [AMX86-F7]
Kd ([1]; 2'-F all C and U (rRfY), 1X SHMCK, 1 mM Mg, 1 mM Ca, 0.1 mg/mL tRNA, RT): 147 nM
Kd ([4]; 2'-F all C and U (rRfY), 1X SHMCK, 0.1 mg/mL tRNA, RT): 106 nM

GGGAAAAGCGAAUCCUACCCAAGAUGUUGUUGGCGUUGAUCGUAUGAUUNAUGGAGNGUGUCNGUGCUCCGCCAGAGACCAACCGAGAA [AMX86-E7]
Kd ([1]; 2'-F C,U, SHMCK, tRNA): 210 nM
Kd ([4]; 2'-F C,U, tRNA): 268 nM

ACAGGCAAGUAAUUGGGGAGUGCGGGCGGGGUGU [ARC1596]
Kd ([1]; deoxy A,G, 2'-OMe C,U, dI at G16, 3'-idT [dI at 16 (parent G), 2'-OMe C,U at 2,6,10,13,14,21,23,27,32,34, deoxy A,G elsewhere, 3'-inverted dT at 35], DPBS Ca …): 11.1 nM

ACAGGCAAGUAAUUGGGGAGUGCGGGCGGGGUGU [ARC1619]
Kd ([1]; deoxy A,G, 2'-OMe C,U, dI at G33, 3'-idT [dI at 33 (G parent), 2'-OMe C/U at 2,6,10,13,14,21,23,27,32,34, other A,G deoxy, 3'-inverted dT at 35], DPBS Ca Mg): 2.8 nM

ACAGGCAAGUAAUUGGGGAGUGCGGGCGGGGUGU [ARC1597]
Kd ([1]; deoxy A,G, 2'-OMe C,U, dI at G17, 3'-idT [17], DPBS Ca Mg): 11.2 nM

ACAGGCAAGUAAUUGGGGAGUGCGGGCGGGGUGU [ARC1603]
Kd ([1]; deoxy A,G, 2'-OMe C,U, dI at G20, 3'-idT [20], DPBS Ca Mg): 1.6 nM

ACAGGCAAGUAAUUGGGGAGUGCGGGCGGGGUGU [ARC1609]
Kd ([1]; deoxy A,G, 2'-OMe C,U, dI at G25,G26, 3'-idT [25,26], DPBS Ca Mg): 4.7 nM

ACAGGCAAGUAAUUGGGGAGUGCGGGCGGGGUGU [ARC1599]
Kd ([1]; deoxy A,G, 2'-OMe C,U, dI at G15,G16, 3'-idT [15,16], DPBS Ca Mg): 7.2 nM

GGGAAAAGCGAAUCAUACACAAGAGGUUGAGUACGACGGAGUCNUGGCUAACACGGAAACUAGAGCUCCGCCAGAGACCAACCGAGAA [AMX86-B9]
Kd ([1]; 2'-F C,U, SHMCK, tRNA): 23.7 nM
Kd ([4]; 2'-F C,U, tRNA): 848 nM

ACAGGCAAGUAAUUGGGGAGUGCGGGCGGGGUGU [ARC1607]
Kd ([1]; deoxy A,G, 2'-OMe C,U, dI at G26, 3'-idT [26], DPBS Ca Mg): 3.3 nM

ACAGGCAAGUAAUUGGGGAGUGCGGGCGGGGUGU [ARC1612]
Kd ([1]; deoxy A,G, 2'-OMe C,U, dI at G29, 3'-idT [dI at 29 (G parent), 2'-OMe C/U at 2,6,10,13,14,21,23,27,32,34, other A,G deoxy, 3'-inverted dT at 35], DPBS Ca Mg): 1.9 nM

ACAGGCAAGUAAUUGGGGAGUGCGGGCGGGGUGU [ARC1614]
Kd ([1]; deoxy A,G, 2'-OMe C,U, dI at G31, 3'-idT [dI at 31 (G parent), 2'-OMe C/U at 2,6,10,13,14,21,23,27,32,34, other A,G deoxy, 3'-inverted dT at 35], DPBS Ca Mg): 1.7 nM

ACAGGCAAGUAAUUGGGGAGUGCGGGCGGGGUGU [ARC1593]
Kd ([1]; deoxy A,G, 2'-OMe C,U, dI at G4,G5, 3'-idT [dI at 4,5 (parent G), 2'-OMe C,U at 2,6,10,13,14,21,23,27,32,34, deoxy A,G elsewhere, 3'-inverted dT at 35], DPBS Ca Mg): 13.8 nM

ACAGGCAAGUAAUUGGGGAGUGCGGGCGGGGUGU [ARC1618]
Kd ([1]; dRmY, deoxyinosine at G28-G31, 3'-idT [deoxyinosine at 28-31 (parent base G written), 2'-deoxy purines, 2'-OMe C/U (2,6,10,13,14,21,23,27,32,34), 3'-inverted dT at 35], dot blot, DPBS with Ca and Mg, 0.1 mg/mL BSA, 30 min RT): 34 nM

ACAGGCAAGUAAUUGGGGAGUGCGGGCGGGGUGU [ARC1615]
Kd ([1]; deoxy A,G, 2'-OMe C,U, dI at G28,G29, 3'-idT [dI at 28,29 (G parent), 2'-OMe C/U at 2,6,10,13,14,21,23,27,32,34, other A,G deoxy, 3'-inverted dT at 35], DPBS Ca Mg): 5.8 nM

ACAGGCAAGUAAUUGGGGAGUGCGGGCGGGGUGU [ARC1601]
Kd ([1]; deoxy A,G, 2'-OMe C,U, dI at G17,G18, 3'-idT [17,18], DPBS Ca Mg): 4.4 nM

ACAGGCAAGUAAUUGGGGAGUGCGGGCGGGGUGU [ARC1466]
Kd ([1]; deoxy A,G, 2'-OMe C,U, PEG spacers between stem 1 strands and core, 3'-idT, DPBS Ca Mg): 1.9 nM

ACAGGCAAGUAAUUGGGGAGUGCGGGCGGGGUGU [ARC1600]
Kd ([1]; deoxy A,G, 2'-OMe C,U, dI at G16,G17, 3'-idT [16,17], DPBS Ca Mg): 15.6 nM

GGGAGAGGAGAGAACGUUCUACGGAAGGNAACAANAGCACUGUUUGUGCAGGCGCUGUCGAUCNAUCNAUCNAUG [rRmY clone SEQ 85]
Kd ([1]; 2'-OMe C,U, DPBS Ca Mg): 240 nM

ACAGGCAAGUAAUUGGGGAGUGCGGGCGGGGUGU [ARC1611]
Kd ([1]; deoxy A,G, 2'-OMe C,U, dI at G28, 3'-idT [dI at 28 (G parent), 2'-OMe C/U at 2,6,10,13,14,21,23,27,32,34, other A,G deoxy, 3'-inverted dT at 35], DPBS Ca Mg): 1.7 nM

CGCAGGCAAGUAAUUGGGGAGUGCGGGCGGGGUGCG [ARC1467]
Kd ([1]; 2'-OMe C,U and some stem G, PEG spacers between stem 1 strands and core, 3'-idT, DPBS Ca Mg): 1.7 nM

ACAGGCAAGUAAUUGGGGAGUGCGGGCGGGGUGU [ARC1598]
Kd ([1]; deoxy A,G, 2'-OMe C,U, dI at G18, 3'-idT [18], DPBS Ca Mg): 4.7 nM

ACAGGCAAGUAAUUGGGGAGUGCGGGCGGGGUGU [ARC1602]
Kd ([1]; dRmY, deoxyinosine at G15-G18, 3'-idT [deoxyinosine at 15-18 (parent base G written), 2'-deoxy purines, 2'-OMe C/U (2,6,10,13,14,21,23,27,32,34), 3'-inverted dT at 35], dot blot, DPBS with Ca and Mg, 0.1 mg/mL BSA, 30 min RT): 40.8 nM

ACAGGCAAGUAAUUGGGGAGUGCGGGCGGGGUGU [ARC1605]
Kd ([1]; deoxy A,G, 2'-OMe C,U, dI at G24, 3'-idT [24], DPBS Ca Mg): 7.5 nM

ACAGGCAAGUAAUUGGGGAGUGCGGGCGGGGUGU [ARC1616]
Kd ([1]; deoxy A,G, 2'-OMe C,U, dI at G29,G30, 3'-idT [dI at 29,30 (G parent), 2'-OMe C/U at 2,6,10,13,14,21,23,27,32,34, other A,G deoxy, 3'-inverted dT at 35], DPBS Ca Mg): 6.1 nM

ACAGGCAAGUAAUUGGGGAGUGCGGGCGGGGUGU [ARC1617]
Kd ([1]; deoxy A,G, 2'-OMe C,U, dI at G30,G31, 3'-idT [dI at 30,31 (G parent), 2'-OMe C/U at 2,6,10,13,14,21,23,27,32,34, other A,G deoxy, 3'-inverted dT at 35], DPBS Ca Mg): 4.1 nM
